pIC50: −log10 of the molar value.

Assay type in all cases: binding
Common to all, as to conditions: Table IV cross-reactivity; phage clones

In experiment [1] the target is T1, Hu DR5 IgG (SEQ ID NO: 109) (Homo sapiens, UniProt O14763).
T1 construct: Human DR5 IgG fusion polypeptide
Put plainly: Ic50 cross-reactivity ELISA, Hu DR5 IgG. As for the experimental part: (§1) 1. Coat microtiter plate wells with 80 ul of 1 ug/ml Apo-2L receptor DR5 ECD (SEQ ID NO: 105) (in 50 mM sodium carbonate pH 9.6) at 4° C. overnight.
(§2) 3. Prepare competing receptor solutions (100 ul/sample).
(§3) 6. Transfer 80 ul the mixture of competing receptor and phage from the non-sticky plate to DR5 ECD coated plate and incubate 20 minutes at room temperature.
(§4) In the Tables provided herein, “Ic 50” refers to the measure of the concentration of peptide needed to inhibit 50% of Apo-2L (e.g. amino acids 114 to 281 of SEQ ID NO: 1) binding to an Apo-2L receptor molecule (e.g. DR4-IgG (SEQ ID NO: 108) or DR5 ECD (SEQ ID NO: 105) etc.). The peptides are classified such that class 1-class 4 represent a, b, c, and d respectively.
(§5) Table VIII identifies the sequence identification numbers (SEQ ID NOs.) for the various peptides disclosed herein.

The subject of experiment [2] is Cyno DR4 IgG (SEQ ID NO: 111). The experiment can be described thus: Ic50 cross-reactivity ELISA, Cyno DR4 IgG. As for the experimental part: as §1, §2, §3, §4, §5
(ELISA stands for enzyme-linked immunosorbent assay.)

The test system of experiment [3] is Cyno DR5 IgG (SEQ ID NO: 112). The experiment can be described thus: Ic50 cross-reactivity ELISA, Cyno DR5 IgG. On the procedure: as §1, §2, §3
Peptides of the invention and their Ic 50 values (e.g. determinations of Ic 50 in ELISA based assays using a DR5 ECD (SEQ ID NO: 105) competitor) are identified in Table III below. In the Tables provided herein, “Ic 50” refers to the measure of the concentration of peptide needed to inhibit 50% of Apo-2L (e.g. amino acids 114 to 281 of SEQ ID NO: 1) binding to an Apo-2L receptor molecule (e.g. DR4-IgG (SEQ ID NO: 108) or DR5 ECD (SEQ ID NO: 105) etc.). The peptides are classified such that class 1-class 4 represent a, b, c, and d respectively.
Table IV below provides certain properties of selected peptides, for example Ic50 cross-reactivity data with DR4 and DR5 polypeptides. Table VIII identifies the sequence identification numbers (SEQ ID NOs.) for the various peptides disclosed herein.
Using these methods, the Ic 50 values for various phage clones expressing peptide sequences of interest were generated and are provided in the Tables below. […]

For experiment [4], the target named is T2, Hu TNFR IgG (SEQ ID NO: 110) (Homo sapiens, UniProt P19438).
T2 construct: Human TNFR1 IgG fusion polypeptide
Put plainly: Ic50 cross-reactivity ELISA, Hu TNFR IgG. As for the experimental part: as §1, §2, §3, §4, §5

Experiment [5] addresses T3, Hu DR4 IgG (SEQ ID NO: 108) (Homo sapiens, UniProt O00220, H141R/R209T).
T3 construct: Human DR4 IgG fusion polypeptide
The experiment can be described thus: Ic50 cross-reactivity ELISA, Hu DR4 IgG. On the procedure:
as §1, §2, §3, §4, §5

Sequence of Cyno DR4 IgG (SEQ ID NO: 111) (as listed by the source): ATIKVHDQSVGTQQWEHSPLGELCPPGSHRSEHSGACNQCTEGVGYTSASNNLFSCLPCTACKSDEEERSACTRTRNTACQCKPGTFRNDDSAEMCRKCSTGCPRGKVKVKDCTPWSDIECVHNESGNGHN
T3 sequence (O00220 with tags, fused parts or gaps H141R/R209T): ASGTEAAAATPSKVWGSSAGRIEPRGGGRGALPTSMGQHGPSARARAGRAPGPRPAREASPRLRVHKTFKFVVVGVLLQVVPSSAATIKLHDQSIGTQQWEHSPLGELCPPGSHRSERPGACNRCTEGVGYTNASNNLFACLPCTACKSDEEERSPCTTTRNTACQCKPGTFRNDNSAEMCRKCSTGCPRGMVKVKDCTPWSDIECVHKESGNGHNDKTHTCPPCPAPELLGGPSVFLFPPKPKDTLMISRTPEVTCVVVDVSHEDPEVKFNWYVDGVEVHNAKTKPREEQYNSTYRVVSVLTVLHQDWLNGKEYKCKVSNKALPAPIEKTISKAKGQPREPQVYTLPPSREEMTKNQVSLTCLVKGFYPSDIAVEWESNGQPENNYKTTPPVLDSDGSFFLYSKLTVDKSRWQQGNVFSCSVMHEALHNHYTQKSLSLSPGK
T1 sequence (O14763 with tags, fused parts or gaps): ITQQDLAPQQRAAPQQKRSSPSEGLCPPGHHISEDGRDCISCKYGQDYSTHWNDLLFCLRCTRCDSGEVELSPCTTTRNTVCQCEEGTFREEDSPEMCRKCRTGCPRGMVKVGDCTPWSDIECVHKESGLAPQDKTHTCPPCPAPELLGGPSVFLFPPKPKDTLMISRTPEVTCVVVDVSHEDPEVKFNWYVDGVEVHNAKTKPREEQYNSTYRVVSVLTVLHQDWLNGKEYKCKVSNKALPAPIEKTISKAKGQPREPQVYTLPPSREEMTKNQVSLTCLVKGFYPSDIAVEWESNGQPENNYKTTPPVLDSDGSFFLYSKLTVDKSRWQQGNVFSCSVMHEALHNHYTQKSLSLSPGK
T2 sequence (P19438 with tags, fused parts or gaps): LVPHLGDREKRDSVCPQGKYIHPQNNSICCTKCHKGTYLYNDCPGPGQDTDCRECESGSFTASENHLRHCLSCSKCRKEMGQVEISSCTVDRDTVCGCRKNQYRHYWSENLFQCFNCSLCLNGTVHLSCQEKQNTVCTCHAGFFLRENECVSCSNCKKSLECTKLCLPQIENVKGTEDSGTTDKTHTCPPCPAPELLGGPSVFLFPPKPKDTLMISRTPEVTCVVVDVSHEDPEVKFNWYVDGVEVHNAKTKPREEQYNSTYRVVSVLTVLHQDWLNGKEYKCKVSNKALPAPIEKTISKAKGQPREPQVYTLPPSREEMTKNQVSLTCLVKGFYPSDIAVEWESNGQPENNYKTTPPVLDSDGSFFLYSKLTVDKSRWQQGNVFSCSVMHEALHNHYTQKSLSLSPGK

In general, pIC50 refers to −log10 of the IC50, conventionally taken in molar units. Lower therefore signals a high IC50. As for “Hd5-11: phage-derived DR5 binding peptide, class C1, SEQ ID NO: 15, first generation (G1) lead (QEVCMTSCDKLMKCNWMAAM)”, the pIC50 in experiment [1] was 8.10; in experiment [2] it was 6.00; in experiment [3], 5.00; in experiment [4] it was 6.00; in experiment [5] it was 6.00.

Values taken from patent US20070066800A1, “Apo2l(trail) receptor binding peptides and uses thereof” (priority 2003, published 2007).
